Source: the supplement of paper PMC10567573

B1: ADD1 (parent)
chain: FASDGDSGTCSPLRHSFQKQQREK
B2: TFE3 (parent)
chain: FHLGLEDILMEEEEGVVGGLSGGA

Variants of: B1
Experiment: protein stability index of a GFP-peptide fusion (GPS, HEK-293T) (PSI 1-6); higher = more stable
Conditions: c terminus: a fixed tail appended
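Further: lentivirally expressed fusions sorted by FACS into six bins by GFP to DsRed ratio, PSI derived from sequencing read proportions per bin multiplied by bin number.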

Protein stability index of substitutions, site by site:
L13: V 5; K 4.57; Y 2.13; C 4.25; H 5.09; R 5.28; N 4.26; A 4.98; P 4.1; M 4.02; G 4.22; D 4.72; S 4.55; T 4.98; F 2.39; I 3.97; Q 4.95; E 4.89
S16: G 3.54; M 2.46; D 4.82; C 2.24; W 2.75; Y 3.88; Q 4.27; V 2.31; P 2.28; R 3.89; L 3.17; H 4.27; A 3.52; K 4.59; F 2.84; N 4.35; I 1.99
Q20: M 3.07; R 4.05; A 4.18; S 4.55; T 4.07; I 3.2; Y 2.65; N 3.65; P 3.65; E 4.16; V 3.71; L 2.69; F 2.8; D 4.23; K 3.96; W 3.22; G 3.98; H 3.71; C 2.97
T9: V 3.31; R 3.33; Y 2.16; S 3.82; I 2.49; F 1.64; E 4.79; L 3.58; H 3.45; Q 4.04; M 2.4; N 4.13; P 4.35; W 3.71
S11: H 2.62; A 3.9; M 3.75; Y 3.92; E 4.5; D 4.04; V 4.58; F 3.17; K 4.45; T 4.53; R 4.39; G 4.35; P 4.62; W 2.17; C 3.16; L 3.94; Q 4.25; I 3.79; N 1.87
E23: L 3.57; I 2.76; A 3.7; Q 4.04; R 3.79; P 3.29; D 3.11; T 3.67; G 3.21; N 3.6; W 2.94; F 2.74; Y 3.25; H 3.66; S 3.66; C 3.37; V 3.58; K 4.34
R22: M 3.77; H 3.84; Q 3.84; C 3.57; T 3.48; P 3.57; Y 4.09; K 4.57; L 3.27; V 3.35; G 4.24; E 4.23; F 3.63; N 3.42; D 4.51; I 3.68; W 3.28; A 3.68; S 4.21
Q18: L 3.73; D 3.83; E 3.88; Y 3.31; C 2.62; W 1.62; H 3.13; M 3.13; F 3.16; N 4; A 2.75; T 3.4; V 2.97; G 3.33; K 3.31; S 3.52; I 3.33; R 3.81; P 3.84
Q21: A 3.85; G 3.94; R 3.75; N 4.04; S 3.64; E 3.84; V 3.06; K 3.75; L 3.26; P 3.67; H 3.4; T 3.99; C 3.57; W 3.49; M 3.48; I 3.42; Y 3.17; F 3.89; D 2.81
H15: A 3.83; P 4.01; L 3.21; E 4.34; W 2.39; Q 3.44; F 3.01; I 3.5; C 2.62; N 4.41; R 3.45; M 2.88; D 5.02; T 4.16; S 4.22; Y 3.44; G 3.29; K 4.1; V 2.93
P12: Q 4.79; D 4.34; H 3.91; Y 3.86; I 3.37; K 3.3; R 4.6; E 3.93; T 4.59; A 4.76; N 4.95; G 4.73; C 2.73; L 3.88; M 4.39; S 3.67; F 3.02; V 3.89
K19: S 3.23; Q 4.53; E 3.71; R 3.19; H 4.43; Y 3.62; W 1.8; D 3.61; I 3.17; P 3.09; F 3.01; M 3.61; L 2.76; T 3.11; N 3.08; C 1.66; A 2.85; G 3.54
R14: P 5.13; M 4.27; D 4.75; A 4.18; L 3.66; S 4.45; N 4.46; H 3.98; I 4.52; E 4.64; T 4.8; Y 1.94; Q 3.6; W 4.02; V 3.97; K 4.55; C 3.52; G 4.11
F17: E 4.34; D 4.62; M 3.95; V 3.71; P 4.82; S 4.47; Y 3.79; Q 4.52; H 3.65; C 4.17; N 4.42; K 3.95; I 3.87; T 3.46; R 4.1; W 3.72; A 3.68; G 3.44; L 4.71
K24: R 3.14; L 3.15; Y 2.83; A 2.92; T 3.88; I 3.17; C 3.41; E 4.01; M 2.46; D 3.83; H 3.25; G 3.41; N 3.57; S 3.4; Q 3.82; W 3.08; P 3.42; V 3.13; F 2.96
C10: Q 4.13; K 4.17; H 4.01; E 4.66; V 3.85; A 4.67; I 4.24; R 4.07; L 3.85; M 3.75; S 4.78; P 3.65; T 4.44; Y 1.63; D 4.68; N 5.17; G 4.49; F 1.87

Variants of: B2
Experiment: as above
Conditions: c terminus: a fixed tail appended

Protein stability index: each site, then its substitutions
E12: I 2.51; Q 3.47; W 1.76; S 3.29
E14: Y 2.39; V 2.53; S 2.83; A 3.17
F1: I 4.57; Y 4.24
G23: I 3.17; S 3.52
G18: F 2.77; K 2.99
E13: H 3.19
L9: T 4.37
M10: G 4.02; N 3.23
V16: E 4.3; W 3.33; C 4.07; G 3.97
E11: A 3.08; D 3.66
G15: N 3.84
L20: V 4.69; Y 3.41; N 4.59
H2: Y 3.56
A24: G 4.32; V 3.74; K 3.98
G22: L 3.31
G19: H 3.47
E6: P 3.02; K 2.68; G 2.58; N 2.73
D7: R 2.16; M 1.65
V17: F 2.88
I8: G 4.2; V 4.08
